Key:
[1] = biological target: ROCK1 (Homo sapiens, UniProt Q13464); conditions: cited from earlier work
[2] = biological target: T1, Full length Tsg101 (Homo sapiens, UniProt Q99816); assay: Two-hybrid liquid culture β-galactosidase assay; format: cell-based; conditions: p6 point mutants
T1 construct: expressed in transfected cells; host or cells: Saccharomyces cerevisiae strain Y189
T1 sequence (Q99816 1-390): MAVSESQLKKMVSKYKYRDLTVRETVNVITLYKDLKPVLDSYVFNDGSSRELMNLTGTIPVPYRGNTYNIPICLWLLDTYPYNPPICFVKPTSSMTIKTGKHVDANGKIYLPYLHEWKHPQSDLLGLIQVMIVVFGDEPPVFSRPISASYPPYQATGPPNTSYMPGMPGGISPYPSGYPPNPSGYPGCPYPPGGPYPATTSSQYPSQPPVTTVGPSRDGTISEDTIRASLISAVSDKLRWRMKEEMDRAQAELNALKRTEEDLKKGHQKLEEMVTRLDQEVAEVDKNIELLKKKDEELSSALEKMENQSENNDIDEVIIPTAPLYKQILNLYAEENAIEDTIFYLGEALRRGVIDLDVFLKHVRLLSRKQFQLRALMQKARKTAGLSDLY
Procedure: The interactions between Tsg101 and wild-type GAGp6 (WT) or the GAGp6 PTAP mutants were further quantitated by performing liquid culture β-galactosidase assays. Cultures were grown overnight in synthetic media (−Leu, −Trp, +glucose) in 96 well plates, normalized for optical density, and lysed by addition of 6× lysis/substrate solution in 6× Z-buffer (60 mM KCl, 6 mM MgSO4, 360 mM Na2HPO4, 240 mM NaH2PO4, 6 mg/ml CPRG, 0.12U/ml lyticase, 0.075% NP-40). Cultures were incubated for 2 hr at 37° C., clarified by centrifugation, and the optical absorbance of each supernatant was measured (575 nm). Full length Tsg101 bound wild-type p6 in the two-hybrid liquid culture assay, resulting in high levels of β-galactosidase activity (>300-fold over background). […] Each of these point mutations also arrests HIV-1 budding at a late stage (Huang et al. 1995).

[3] = biological target: T2, Tsg101 (Homo sapiens, UniProt Q99816); assay: Yeast two-hybrid filter lift assay for β-Gal activity (Tsg101 / GAGp6 interaction); format: cell-based; set-up: key to Interactions Between Tsg101 and GAGp6 (β-Gal activity, filter lift): +: Positive β-Gal activity indicates that the GAGp6 wild type or mutant protein interacts with Tsg101; conditions: for ability to bind Tsg101 protein (in words): yeast two-hybrid, GAGp6 point mutants
T2 construct: expressed in transfected cells; host or cells: Saccharomyces cerevisiae strain Y189
T2 sequence (Q99816 1-390): T1 sequence (Q99816 1-390)
Excerpt: Yeast two-hybrid assays were utilized to determine the effect of amino acid substitution mutations in the PTAP motif of HIV GAGp6 on the interaction between Tsg101 and GAGp6. To prepare a yeast two-hybrid activation domain-Tsg101 construct, a DNA fragment encompassing the full-length coding sequence for Tsg101 according to GenBank Accession No. U82130 was obtained by PCR from a human fetal brain cDNA library and cloned into the EcoRI/Pst1 sites of the activation domain parent plasmid GADpN2 (LEU2, CEN4, ARS1, ADH1p-SV40NLS-GAL4 (768–881)-MCS (multiple cloning site)-PGK1t, AmpR, ColE1_ori).
To prepare the yeast two-hybrid DNA binding domain-HIV1 GAGp6 construct, a DNA fragment corresponding to the HIV1 GAGp6 peptide derived from the HIV1.NL43 strain GAG protein was obtained by PCR from the NL43 containing plasmid R9≢apa and was cloned into the EcoRI/Sal1 sites of the binding domain parent plasmid pGBT.Q.
The following amino acid substitution mutations were introduced by PCR into the HIV1 GAGp6 sequence in the yeast two-hybrid binding domain-HIV1 GAGp6 construct described above. The mutations were verified by DNA sequence analysis.
To test the effect of the mutations, yeast cells of the strain Y189 purchased from Clontech (ura3-52 his3*200 ade2-101 trp1-901 leu2-3,112 met gal4 gal80 URA3::GAL1p-lacZ) were co-transformed with the activation domain-Tsg101 construct and one of the binding domain-mutant GAGp6 constructs or the binding domain-wild type GAGp6 construct. Filter lift assays for β-Gal activity were conducted by lifting the transformed yeast colonies with filters, lysing the yeast cells by freezing and thawing, and contacting the lysed cells with X-Gal. […] All binding domain constructs were also tested for self-activation of β-Gal activity.

[4] = biological target: T3, interaction between GST-p6 and myc-Tsg101(1-207) (Homo sapiens, UniProt Q99816); assay: In vitro binding assay: competition of p6(1-14) with GST-p6 for myc-Tsg101(1-207)
T3 construct: Drosophila S2 cell lysate myc-tagged Tsg101 (residues 1–207); made in house; host or cells: Drosophila S2 cells (used as lysate)
T3 sequence (Q99816 1-207): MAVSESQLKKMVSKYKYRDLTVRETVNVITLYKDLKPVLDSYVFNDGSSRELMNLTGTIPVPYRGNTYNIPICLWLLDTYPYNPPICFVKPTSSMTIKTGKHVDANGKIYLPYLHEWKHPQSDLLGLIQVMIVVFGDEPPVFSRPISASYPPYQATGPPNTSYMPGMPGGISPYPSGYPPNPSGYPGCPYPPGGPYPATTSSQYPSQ
Procedure: A fusion protein with a GST tag fused to the HIV-1 GAGp6 domain was recombinantly expressed and purified by chromatography. In addition, a GAGp6 peptide containing the first 14 amino acid residues (“p6(1–14)”) was synthesized chemically by standard peptide synthesis methods. The peptide was purified by conventional protein purification techniques, e.g., by chromatography.
Nunc/Nalgene Maxisorp plates were incubated overnight at 4° C. or for 1–2 hrs at room temperature in 100 μl of a protein coupling solution containing purified GST-p6 and 50 mM Carbonate, pH=9.6. This allowed the attachment of the GST-p6 fusion protein to the plates. Liquids in the plates were then emptied and wells filled with 400 μl/well of a blocking buffer (SuperBlock; Pierce-Endogen, Rockford, Ill.). […]
Plates were then washed 4×100 μl with 1× PBST solution (Invitrogen; Carlsbad, Calif.). […] Plates were then read on a Packard Fusion instrument at an excitation wavelength of 325 nm and an emission wavelength of 420 nm. […]
Different concentrations of the p6(1–14) peptide were tested, and the relative intensities of the fluorescence signals obtained at different concentrations were plotted against the peptide concentrations. […]

Sequence of ROCK1 (Q13464 whole entry): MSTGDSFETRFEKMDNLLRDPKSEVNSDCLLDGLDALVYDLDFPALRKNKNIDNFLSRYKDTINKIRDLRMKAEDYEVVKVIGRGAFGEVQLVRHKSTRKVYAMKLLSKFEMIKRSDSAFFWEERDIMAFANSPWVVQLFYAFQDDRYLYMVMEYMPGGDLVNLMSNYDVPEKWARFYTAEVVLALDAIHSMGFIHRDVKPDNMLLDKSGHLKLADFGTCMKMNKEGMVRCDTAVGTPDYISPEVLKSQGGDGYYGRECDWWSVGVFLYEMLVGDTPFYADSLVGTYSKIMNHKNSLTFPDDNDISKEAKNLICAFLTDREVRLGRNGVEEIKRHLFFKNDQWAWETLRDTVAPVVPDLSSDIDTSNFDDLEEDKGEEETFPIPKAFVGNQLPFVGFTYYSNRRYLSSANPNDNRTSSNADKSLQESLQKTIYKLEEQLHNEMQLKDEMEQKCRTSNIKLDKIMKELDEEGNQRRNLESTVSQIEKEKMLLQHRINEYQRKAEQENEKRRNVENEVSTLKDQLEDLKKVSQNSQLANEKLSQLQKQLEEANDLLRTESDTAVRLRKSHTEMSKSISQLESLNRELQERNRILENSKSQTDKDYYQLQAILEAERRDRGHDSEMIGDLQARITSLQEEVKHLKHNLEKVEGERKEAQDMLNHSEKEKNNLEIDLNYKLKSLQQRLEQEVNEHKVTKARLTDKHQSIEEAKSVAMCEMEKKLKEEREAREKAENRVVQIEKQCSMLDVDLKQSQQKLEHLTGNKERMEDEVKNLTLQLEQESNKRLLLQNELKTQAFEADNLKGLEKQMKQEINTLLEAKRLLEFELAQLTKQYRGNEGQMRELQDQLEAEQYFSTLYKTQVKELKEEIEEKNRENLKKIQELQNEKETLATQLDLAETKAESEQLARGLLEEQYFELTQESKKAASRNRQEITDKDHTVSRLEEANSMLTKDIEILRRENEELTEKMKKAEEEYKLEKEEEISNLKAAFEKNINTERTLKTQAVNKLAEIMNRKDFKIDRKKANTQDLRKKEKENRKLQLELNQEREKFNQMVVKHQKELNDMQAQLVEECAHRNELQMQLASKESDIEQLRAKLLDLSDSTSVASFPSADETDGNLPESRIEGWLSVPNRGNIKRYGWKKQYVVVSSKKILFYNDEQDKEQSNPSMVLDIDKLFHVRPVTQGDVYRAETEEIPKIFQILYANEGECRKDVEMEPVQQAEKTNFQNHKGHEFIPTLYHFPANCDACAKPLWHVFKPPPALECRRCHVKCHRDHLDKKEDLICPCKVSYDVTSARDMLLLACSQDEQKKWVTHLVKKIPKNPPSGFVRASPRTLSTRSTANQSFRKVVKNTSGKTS

C[C@@H](N)[C@H]1CC[C@H](C(=O)Nc2ccncc2)CC1 [Y-27632, (+)-(R)-trans-4-(1-aminoethyl)-N-(4-pyridyl) cyclohexanecarboxamide]
selectivity for ROCK1 [1]: highly selective for ROCK1

P6/A9R (LQSRPEPTRPPEESFRFGEETTTPSQKQEPIDKELYPLASLRSLFGSDPSSQ; left off: large carriers; small tags and cut ends)
β-galactosidase activity (in words) [2]: reduced β-galactosidase activity to background levels | ability to bind Tsg101 protein (in words) [3]: abolishes the GAGp6 binding affinity to Tsg101

P6/E6G (LQSRPGPTAPPEESFRFGEETTTPSQKQEPIDKELYPLASLRSLFGSDPSSQ; left off: large carriers; small tags and cut ends)
Interactions Between Tsg101 and GAGp6 (β-Gal activity, filter lift) ([3]; yeast strain Y189 co-transformed with activation domain-Tsg101 construct and binding domain-GAGp6 construct): + | ability to bind Tsg101 protein (in words) [3]: did not result in the elimination of the Tsg101-GAGp6 interaction | ability to bind Tsg101 protein (in words) ([3]; listed as E6G GAGp6 mutant): capable of binding Tsg101 protein

P6/P7L (LQSRPELTAPPEESFRFGEETTTPSQKQEPIDKELYPLASLRSLFGSDPSSQ; left off: large carriers; small tags and cut ends)
β-galactosidase activity (in words) [2]: reduced β-galactosidase activity to background levels | ability to bind Tsg101 protein (in words) [3]: abolishes the GAGp6 binding affinity to Tsg101

P6/P10L (LQSRPEPTALPEESFRFGEETTTPSQKQEPIDKELYPLASLRSLFGSDPSSQ; left off: large carriers; small tags and cut ends)
β-galactosidase activity (in words) [2]: reduced β-galactosidase activity to background levels | ability to bind Tsg101 protein (in words) [3]: abolishes the GAGp6 binding affinity to Tsg101

p6(1-14): chemically synthesized GAGp6 peptide containing the first 14 amino acid residues, includes the PTAP late domain motif (LQSRPEPTAPPEES)
inhibition of protein-protein interaction between GST-p6 and myc-Tsg101(1-207) ([4]; competitive inhibition curve, FIG. 2): capable of inhibiting | binding to the N-terminal portion of Tsg101 (amino acid residues 1–207) ([4]; includes the Tsg101 UEV domain): sufficient in binding

From patent publication US7202329B2, “Tsg101-GAGp6 interaction and use thereof” (priority 2001, dated 2007)
